From IntAct's records for PubMed 18826941

B1: N-acetyllactosaminide beta-1,3-N-acetylglucosaminyltransferase 2 (Homo sapiens), Q9NY97 (parent)
chain: MSVGRRRIKLLGILMMANVFIYFIMEVSKSSSQEKNGKGEVIIPKEKFWKISTPPEAYWNREQEKLNRQYNPILSMLTNQTGEAGRLSNISHLNYCEPDLRVTSVVTGFNNLPDRFKDFLLYLRCRNYSLLIDQPDKCAKKPFLLLAIKSLTPHFARRQAIRESWGQESNAGNQTVVRVFLLGQTPPEDNHPDLSDMLKFESEKHQDILMWNYRDTFFNLSLKEVLFLRWVSTSCPDTEFVFKGDDDVFVNTHHILNYLNSLSKTKAKDLFIGDVIHNAGPHRDKKLKYYIPEVVYSGLYPPYAGGGGFLYSGHLALRLYHITDQVHLYPIDDVYTGMCLQKLGLVPEKHKGFRTFDIEEKNKNNICSYVDLMLVHSRKPQEMIDIWSQLQSAHLKC
partner: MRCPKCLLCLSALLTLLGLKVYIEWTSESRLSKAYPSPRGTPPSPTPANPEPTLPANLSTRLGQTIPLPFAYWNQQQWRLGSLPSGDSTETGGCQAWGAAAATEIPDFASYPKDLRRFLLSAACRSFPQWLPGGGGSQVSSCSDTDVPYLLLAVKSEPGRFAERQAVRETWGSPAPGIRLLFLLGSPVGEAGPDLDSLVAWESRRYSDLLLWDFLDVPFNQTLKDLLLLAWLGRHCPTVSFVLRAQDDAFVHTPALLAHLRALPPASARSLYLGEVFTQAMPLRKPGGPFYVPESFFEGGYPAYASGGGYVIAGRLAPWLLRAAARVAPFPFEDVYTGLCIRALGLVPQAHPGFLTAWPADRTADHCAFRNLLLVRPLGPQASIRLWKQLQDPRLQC
B2: "UDP-GlcNAc:betaGal beta-1,3-N-acetylglucosaminyltransferase 8" (Homo sapiens), Q7Z7M8 (parent)
chain: B1 partner
partner: B1 chain

Variants of: B1
Details: with B3GNT8, Q7Z7M8

Variant	effect of a mutation on the interaction
D245A	with no effect

Variants of: B2
Details: with B3GNT2, Q9NY97

Variant	effect of a mutation on the interaction
Q246A	with no effect
